From patent US10774129B2, “Complexes of types of MHC class II that bind to collagen type II peptides and their use on diagnosis and treatment” (FRAUNHOFER-GESELLSCHAFT ZUR FÖRDERUNG DER ANGEWANDTEN …, priority 2011, dated 2020)
Square brackets hold non-standard residues; d marks the D form. Ends that are not written are not given here. Cit = NC(=O)NCCC[C@H](N)C(=O)O

What was measured:
Test in all cases: in vitro binding assay to recombinant MHC class II protein
[1] = tested on: MHC class II of the HLA DRB1 0408 genotype; design: species or system human; key: *0101: the listing of the allele in the column for the allele indicates binding; *0401: “0401” in the “Binds to 0401” column indicates binding of the peptide to MHC class II of the HLA DRB1 0401 genotype; *0404: the listing of the allele in the column for the allele indicates binding; *0405: the listing of the allele in the column for the allele indicates binding; *0408: the listing of the allele in the column for the allele indicates binding; *1001: the listing of the allele in the column for the allele indicates binding; “no” or no data indicates no binding to a protein of that genotype
Text: (§1) Binding of the peptides to recombinant MHC class II protein of various alleles has been confirmed in an in vitro binding assay and the results are shown in Tables 1, 2 and 3. In table 1, 2 and 3, the listing of the allele in the column for the allele indicates binding. Thus “0401” in the “Binds to 0401” column indicates binding of the peptide to MHC class II of the HLA DRB1 0401 genotype. “no” or no data indicates no binding to a protein of that genotype. Empty boxes indicate no binding or that binding has not been determined. In the tables it is also indicated if the peptide has a citrulline residue, where “yes” indicates the presence of a citrulline residue and “no” indicates the absence of a citrulline residue.

[2] = molecular target: MHC class II of the HLA DRB1 0401 genotype (Homo sapiens, UniProt P01903+P01911, A100K/A169T/F76Y/I96L/K127E/L162R/M171V/N62H/P40V/Q125Y/R42H/S133A/S149N/S66Y/V115G/V209L/W38E); design: key to Binds to 0401: *0101: the listing of the allele in the column for the allele indicates binding; *0401: “0401” in the “Binds to 0401” column indicates binding of the peptide to MHC class II of the HLA DRB1 0401 genotype; *0404: the listing of the allele in the column for the allele indicates binding; *0405: the listing of the allele in the column for the allele indicates binding; *0408: the listing of the allele in the column for the allele indicates binding; *1001: the listing of the allele in the column for the allele indicates binding; “no” or no data indicates no binding to a protein of that genotype; settings: recombinant MHC class II, HLA DRB1 0401
Text: as §1
Thus for these peptides no binding to HLA-DR0401 was observed when citrulline was exchanged with the original amino acid arginine (Table 4). No binding of the citrullinated peptides was seen to HLA-DR 03 or 02 variants.

[3] = tested on: MHC class II of the HLA DRB1 1001 genotype; design: species or system human; key to Binds to 1001: *0101: the listing of the allele in the column for the allele indicates binding; *0401: “0401” in the “Binds to 0401” column indicates binding of the peptide to MHC class II of the HLA DRB1 0401 genotype; *0404: the listing of the allele in the column for the allele indicates binding; *0405: the listing of the allele in the column for the allele indicates binding; *0408: the listing of the allele in the column for the allele indicates binding; *1001: the listing of the allele in the column for the allele indicates binding; “no” or no data indicates no binding to a protein of that genotype; settings: recombinant MHC class II, HLA DRB1 1001
Text: as §1

[4] = molecular target: MHC class II of the HLA DRB1 0405 genotype (Homo sapiens, UniProt P01903+P01911, A100R/A169T/D86S/F76Y/I96L/K127E/L162R/M171V/N62H/P40V/Q125Y/R42H/S133A/S149N/S66Y/V115G/V209L/W38E); design: key: *0101: the listing of the allele in the column for the allele indicates binding; *0401: “0401” in the “Binds to 0401” column indicates binding of the peptide to MHC class II of the HLA DRB1 0401 genotype; *0404: the listing of the allele in the column for the allele indicates binding; *0405: the listing of the allele in the column for the allele indicates binding; *0408: the listing of the allele in the column for the allele indicates binding; *1001: the listing of the allele in the column for the allele indicates binding; “no” or no data indicates no binding to a protein of that genotype
Text: as §1

[5] = molecular target: MHC class II of the HLA DRB1 0404 genotype (Homo sapiens, UniProt P01903+P01911, A100R/A169T/F76Y/I96L/K127E/L162R/M171V/N62H/P40V/Q125Y/R42H/S133A/S149N/S66Y/V209L/W38E); design: key: *0101: the listing of the allele in the column for the allele indicates binding; *0401: “0401” in the “Binds to 0401” column indicates binding of the peptide to MHC class II of the HLA DRB1 0401 genotype; *0404: the listing of the allele in the column for the allele indicates binding; *0405: the listing of the allele in the column for the allele indicates binding; *0408: the listing of the allele in the column for the allele indicates binding; *1001: the listing of the allele in the column for the allele indicates binding; “no” or no data indicates no binding to a protein of that genotype
Text: as §1

[6] = molecular target: MHC class II of the HLA DRB1 0101 genotype (Homo sapiens, UniProt P01903+P01911, A100R/D57E/F55L/F60I/F76Y/I96L/L162R/M171V/P40L/Q125E/R42F/V115G/Y59C); design: key: *0101: the listing of the allele in the column for the allele indicates binding; *0401: “0401” in the “Binds to 0401” column indicates binding of the peptide to MHC class II of the HLA DRB1 0401 genotype; *0404: the listing of the allele in the column for the allele indicates binding; *0405: the listing of the allele in the column for the allele indicates binding; *0408: the listing of the allele in the column for the allele indicates binding; *1001: the listing of the allele in the column for the allele indicates binding; “no” or no data indicates no binding to a protein of that genotype
Text: as §1

Substance	Binds to 0408 [1]	Binds to 0401 [2]	Binds to 1001 [3]	Binds to 0405 [4]	Binds to 0404 [5]	Binds to 0101 [6]
a-enolase 57: human alpha-enolase peptide, not citrullinated (KSFIKDYPVVSIEDP; listed as Homo sapiens)	*0408	*0401	*1001	*0405	*0404	*0101
a-enolase 38: human alpha-enolase peptide, not citrullinated (AEVYHNLKNVIKEKY; listed as Homo sapiens)	*0408	*0401	no	*0405	no	*0101
a-enolase 80: human alpha-enolase peptide, not citrullinated (GAPCRSERLAKYNQL; listed as Homo sapiens)	*0408	no	no	*0405	no	*0101
a-enolase 13: human alpha-enolase peptide, not citrullinated (GVSKAVEHINKTIAP; listed as Homo sapiens)	no	no	no	no	*0404	*0101
a-enolase 69: human alpha-enolase peptide, not citrullinated (LLKVNQIGSVTESLQ; listed as Homo sapiens)	no	no	no	*0405	no	no
a-enolase 1: human alpha-enolase peptide, not citrullinated (MSILKIHAREIFDSR; listed as Homo sapiens)	no	no	*1001	*0405	*0404	*0101
a-enolase 14: human alpha-enolase peptide, not citrullinated (VEHINKTIAPALVSK; listed as Homo sapiens)	*0408	no	no	no	*0404	*0101
a-enolase 45: human alpha-enolase peptide, not citrullinated (KEGLELLKTAIGKAG; listed as Homo sapiens)	*0408	*0401	no	*0405	*0404	*0101
a-enolase 36: human alpha-enolase peptide, not citrullinated (ANFREAMRIGAEVYH; listed as Homo sapiens)	no	no	no	*0405	no	*0101
a-enolase 15: human alpha-enolase peptide, not citrullinated (KTIAPALVSKKLNVT; listed as Homo sapiens)	*0408	no	no	no	*0404	*0101
a-enolase 26: human alpha-enolase peptide, not citrullinated (KGVPLYRHIADLAGN; listed as Homo sapiens)	*0408	*0401	no	*0405	*0404	*0101
a-enolase 81: human alpha-enolase peptide, not citrullinated (SERLAKYNQLLRIEE; listed as Homo sapiens)	no	no	no	no	*0404	*0101
a-enolase 34: human alpha-enolase peptide, not citrullinated (QEFMILPVGAANFRE; listed as Homo sapiens)	no	*0401	no	*0405	*0404	*0101
a-enolase 299: citrullinated human alpha-enolase peptide (KGVPLY[Cit]HIADLAGN; listed as Homo sapiens)	*0408	*0401	no	*0405	no	no
